Columns and labels:
[1] = molecular target: T1, human HER3 polypeptide (human, UniProt P21860 20-643); test: BLI; after 15 days at 40 °C/80% RH
T1 construct: Recombinant antigen of the ELISAs; also called human HER3 (Sino Biological Inc.); human antigen HER3

[2] = molecular target: T2, hCD16a (human, UniProt P08637 17-208, limits assumed); test: BLI; after 15 days at 40 °C/80% RH
T2 construct: also called human CD16a

[3] = molecular target: T1, human HER3 polypeptide; test: BLI; day 0 of storage at 40 °C/80% RH
[4] = molecular target: T2, hCD16a; test: BLI; day 0 of storage at 40 °C/80% RH
[5] = molecular target: T3, human EGFR (human, UniProt P00533 25-645); test: ELISA; plate coated with target polypeptide, absorbance 450 nm
T3 construct: also called human HER1 (EGFR) (Sino Biological Inc.)
Procedure: (§1) The antibodies were analysed for their ability to bind to human HER3 polypeptide as well as human HER1 (EGFR) and human HER2 (Sino Biological Inc., China).
(§2) ELISAs were carried out according to standard protocols. Plates were coated with 0.1 μg/ml of target polypeptide in phosphate-buffered saline (PBS) for 16 h at 4° C. After blocking for 1 h with 1% BSA in Tris buffer saline (TBS) at room temperature, the anti-HER3 antibody was serially diluted with the highest concentration being 10 μg/ml, and added to the plate. Post 1 h incubation at room temperature, plates were washed three times with TBS containing 0.05% Tween 20 (TBS-T) and were then incubated with a HRP-conjugated anti-His antibody (Life Technologies, Inc., USA) for 1 h at room temperature. After washing, plates were developed with colorimetric detection substrate 3,3′,5,5′-tetramethylbenzidine (Turbo-TMB; Pierce, USA) for 10 min. The reaction was stopped with 2M H₂SO₄, and OD was measured at 450 nm.

[6] = molecular target: T4, human HER2 (human, UniProt P04626 23-652); test: as above
T4 construct: also called human HER2 (Sino Biological Inc.)
Procedure: as §1, §2

[7] = molecular target: T1, human HER3 polypeptide; test: ELISA; plate coated with target polypeptide, antibody serially diluted, absorbance 450 nm
Procedure: as §2

[8] = molecular target: T5, mouse HER3 (mouse, UniProt Q61526 20-641); test: as above
T5 construct: also called mouse homologue of HER3 (Sino Biological Inc.); M. musculus HER3
Procedure: as §2

[9] = molecular target: T6, rat HER3 (rat, UniProt Q62799 20-641, limits assumed); test: as above
T6 construct: also called rat homologue of HER3 (Sino Biological Inc.); R. norvegicus HER3
Procedure: as §2

[10] = molecular target: T7, cynomolgus macaque HER3 (cynomolgus macaque, UniProt G7PIG5 20-643); test: as above
T7 construct: also called monkey homologue of HER3 (Sino Biological Inc.); HER3 cyno
Procedure: as §2

[11] = molecular target: T8, His-tagged human HER3 (human, UniProt P21860 20-643); test: BLI (Octet QK384), antibody on anti-human IgG capture tips, His-tagged human HER3 in solution, global one-site fit
T8 construct: Antigen of the BLI experiments and of the HER2-Fc dimerisation ELISA; also called HER3 His; not shown: His tag
Procedure, shortened: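 The antibodies, in IgG1 format at 25 nM, sat on anti-human IgG capture tips, and HER3 binding was followed at 25° C under 1000 rpm agitation.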

[12] = molecular target: T9, human HER3 expressed on cells (HEK293 HER3 O/E cells) (human, UniProt P21860 20-1342); test: flow cytometry on HEK293T HER3 O/E cells, 10 ug antibody as printed, FITC-conjugated anti-Fc secondary
T9 construct: Also used here for HER3 on U2OS cells of the PathHunter kit and on cancer cell lines; also called HEK293 cells transfected with vector encoding human HER3; human HER3-expressing cells
Procedure: The cells were washed with buffer (PBS with 2 mM EDTA and 0.5% BSA) and resuspended in FITC-conjugated anti-FC antibody (Invitrogen, USA) at 10 μg/ml for 20 min at 4° C. Cells were washed again and resuspended in 200 μL of FACS flow buffer (PBS with 5 mM EDTA) for flow cytometric analysis using MACSQuant 10 (Miltenyi Biotec, Germany). Unstained WT and transfected HEK293 cells were included in the analysis as negative controls. After acquisition, all raw data were analyzed using Flowlogic software. Cells were gated using forward and side scatter profile percentage of positive cells was determined for native and overexpressing cell populations.

[13] = molecular target: T8, His-tagged human HER3; test: plate ELISA dimerisation assay; HER2-Fc coated, constant HER3 His and NRG, antibody varied; blocked partner HER2-Fc
Procedure: Plate-based ELISA dimerisation assays were carried out according to standard protocols. Plates were coated with 1 μg/ml HER2-Fc protein. […] Plates were then washed and incubated for 1 hour with secondary anti-HIS HRP antibody. […] The absorbance was read at 450 nm.

[14] = molecular target: T8, His-tagged human HER3; test: BLI (Octet QK384), antibody on anti-human IgG capture tips, His-tagged human HER3 35-278 nM, global 1:1 fit; kdis Error 1.15E-04
Procedure: The anti-HER3 antibody clones in IgG1 format were analysed for binding affinity to human HER3. Bio-Layer Interferometry (BLI) experiments were performed using the Octet QK384 system (ForteBio). anti-Human IgG Capture (AHC) Octet sensor tips (Pall ForteBio, USA) were used to anti-HER3 antibodies (25 nM). All measurements were performed at 25° C. with agitation at 1000 rpm. […] Sensograms were referenced for buffer effects and then fitted using the Octet QK384 user software (Pall ForteBio, USA). Kinetic responses were subjected to a global fitting using a one site binding model to obtain values for association (Kₒₙ), dissociation (Koff) rate constants and the equilibrium dissociation constant (KD). Only curves that could be reliably fitted with the software (R²>0.90) were included in the analysis.

[15] = molecular target: T8, His-tagged human HER3; test: Bio-Layer Interferometry (Octet QK384); antibody on anti-Human IgG Capture tips, HIS-tagged human HER3 at 35, 69, 139 and 278 nM

T5 sequence (Q61526 20-641 limits assumed): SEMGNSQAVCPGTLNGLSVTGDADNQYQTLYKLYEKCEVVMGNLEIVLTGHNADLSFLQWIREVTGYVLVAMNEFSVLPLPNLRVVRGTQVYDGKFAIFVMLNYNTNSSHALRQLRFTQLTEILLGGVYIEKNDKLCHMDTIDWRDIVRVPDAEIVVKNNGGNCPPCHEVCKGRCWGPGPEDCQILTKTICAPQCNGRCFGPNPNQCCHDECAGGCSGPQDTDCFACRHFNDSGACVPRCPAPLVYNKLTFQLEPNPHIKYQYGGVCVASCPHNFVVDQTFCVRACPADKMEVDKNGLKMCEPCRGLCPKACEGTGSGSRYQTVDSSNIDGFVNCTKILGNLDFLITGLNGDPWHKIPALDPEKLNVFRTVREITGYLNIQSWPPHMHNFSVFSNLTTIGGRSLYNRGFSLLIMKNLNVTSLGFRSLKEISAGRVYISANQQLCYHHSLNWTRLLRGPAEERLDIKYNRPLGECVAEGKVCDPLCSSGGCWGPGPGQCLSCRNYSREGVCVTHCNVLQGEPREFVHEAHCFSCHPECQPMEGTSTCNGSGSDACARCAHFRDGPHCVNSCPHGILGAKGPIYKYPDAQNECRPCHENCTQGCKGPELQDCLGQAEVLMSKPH
T7 sequence (G7PIG5 entry or part of it): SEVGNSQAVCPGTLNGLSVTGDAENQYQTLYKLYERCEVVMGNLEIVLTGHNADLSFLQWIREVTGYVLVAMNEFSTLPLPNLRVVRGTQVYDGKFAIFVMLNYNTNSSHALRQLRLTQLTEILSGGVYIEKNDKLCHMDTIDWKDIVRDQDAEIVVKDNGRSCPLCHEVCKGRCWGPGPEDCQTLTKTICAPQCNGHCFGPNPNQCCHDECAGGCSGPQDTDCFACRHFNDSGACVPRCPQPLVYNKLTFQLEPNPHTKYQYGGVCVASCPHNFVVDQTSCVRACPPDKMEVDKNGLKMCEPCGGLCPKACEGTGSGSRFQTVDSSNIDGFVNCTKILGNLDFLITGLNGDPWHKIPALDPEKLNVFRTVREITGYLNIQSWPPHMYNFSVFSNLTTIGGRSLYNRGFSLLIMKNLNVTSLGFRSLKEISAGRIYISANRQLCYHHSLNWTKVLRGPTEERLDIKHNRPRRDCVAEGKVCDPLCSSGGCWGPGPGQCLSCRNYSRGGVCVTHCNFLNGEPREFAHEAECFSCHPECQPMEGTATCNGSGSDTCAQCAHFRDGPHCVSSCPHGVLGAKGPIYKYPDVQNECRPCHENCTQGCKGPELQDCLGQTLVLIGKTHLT
T6 sequence (Q62799 20-641 limits assumed): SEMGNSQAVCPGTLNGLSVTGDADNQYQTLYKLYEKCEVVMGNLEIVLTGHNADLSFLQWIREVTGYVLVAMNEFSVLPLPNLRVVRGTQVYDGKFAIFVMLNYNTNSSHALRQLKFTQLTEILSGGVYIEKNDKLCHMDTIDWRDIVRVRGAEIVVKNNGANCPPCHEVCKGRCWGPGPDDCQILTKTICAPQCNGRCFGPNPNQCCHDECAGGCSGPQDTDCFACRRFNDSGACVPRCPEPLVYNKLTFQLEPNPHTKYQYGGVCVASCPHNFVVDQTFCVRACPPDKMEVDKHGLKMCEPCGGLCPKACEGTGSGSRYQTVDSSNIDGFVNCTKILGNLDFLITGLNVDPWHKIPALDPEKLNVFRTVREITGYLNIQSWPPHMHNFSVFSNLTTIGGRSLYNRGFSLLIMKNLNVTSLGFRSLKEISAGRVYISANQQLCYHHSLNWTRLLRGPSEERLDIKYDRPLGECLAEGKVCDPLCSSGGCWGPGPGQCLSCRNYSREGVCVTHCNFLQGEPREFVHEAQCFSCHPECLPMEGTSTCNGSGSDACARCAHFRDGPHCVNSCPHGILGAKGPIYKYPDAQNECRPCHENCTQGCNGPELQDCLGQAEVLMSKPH

- Kd [1]: < 0.001 nM
- Kd [2]: 265 nM
- Kd [3]: < 0.001 nM
- Kd [4]: 294 nM
- binding result [5]: no binding
- binding result [6]: no binding
- EC50 [7]: 0.0144 nM
- EC50 [8]: 0.0332 nM
- EC50 [9]: 0.0303 nM
- EC50 [10]: 0.0258 nM
- Kd [11]: 0.0726 nM
- % Parent (HER3 positive) [12]: 73.3%
- IC50 [13]: 78.8 nM
- koff [14]: 2.16e-05 s⁻¹
- Kd [15]: 0.0726 nM
- koff [15]: 2.16e-05 s⁻¹
- kon [15]: 297000 M⁻¹ s⁻¹
B1: 10D1F.FcA (anti-HER3 clone 10D1_c89 IgG1) (antibody)
heavy: not shown
light: DIQMTQSPSSVSASVGDRVTITCKASQIVGSNVAWYQQKPGKAPEPLIYSASYLYSGVPSRFSGSGSGTDFTLTISSLQPEDFATYYCQQYSSHPLTFGQGTKLEIKRTVAAPSVFIFPPSDEQLKSGTASVVCLLNNFYPREAKVQWKVDNALQSGNSQESVTEQDSKDSTYSLSSTLTLSKADYEKHKVYACEVTHQGLSSPVTKSFNRGEC
notes: also called 10D1F.A; HMBD-001
